According to article PMC8764033, “Single-molecule analysis of specificity and multivalency in binding of short linear substrate motifs to the APC/C” (Nature Communications, 2022):
Values joined by “and” are separate entries in the source; they are usually repeats but may differ in a detail not shown here. Equal values may be shown once. Read-outs that look alike come from different tables or passages of the source.

Tests used:
APC/C^Cdc20 = molecular target: T1, APC/C^Cdc20 (Saccharomyces cerevisiae, UniProt P26309+P53068); assay: SMOR assay, yeast APC/C^Cdc20; type: binding; details: for mean dwell time: representative of two independent experiments, ± SE, ligand ≤1 nM, buffer C + BSA
T1 construct: APC/C was purified from yeast cells; made in house; host or cells: APC/C from S. cerevisiae W303 strain NHY13 (Cdc16-TAP, Apc1-GFP, cdh1 deleted); Cdc20 from Sf9 (baculovirus)
Description: (§1) Yeast strains were derivatives of W303 and are listed in Supplementary Table 2. For APC/C purification, we used a strain carrying Cdc16-TAP and lacking Cdh1 (DOM1126); in most experiments, the strain also carried Apc1-GFP (NHY13). Yeast were grown in YPD media to OD600 = 0.8, collected and flash-frozen. Cells were lysed by bead beating in lysis buffer A (50 mM HEPES pH 7.5, 150 mM KCl, 10% glycerol, 0.2% Triton X-100, 63 µM B-glycerophosphate, 48 µM sodium fluoride, 1 µg ml^−1 pepstatin A, 1 µg ml^−1 leupeptin, 1 µg ml^−1 aprotinin, 1 mM PMSF, 1 mM DTT, 0.5 mM EDTA) and APC/C was purified using magnetic IgG beads. The beads were washed using wash buffer A (20 mM HEPES pH 7.5, 150 mM KCl, 10% Glycerol, 0.05% Triton X-100). After incubation with purified Cdh1 or Cdc20, the APC/C was cleaved off the beads with TEV protease in wash buffer A with 0.05% Tween-20 (for single-molecule studies) or 0.05% Triton X-100 (for ensemble assays such as ubiquitylation) and used immediately.
(§2) For all SMOR experiments, 24 × 50 mm high precision glass coverslips (Bioscience Tools) and drilled microscope slides were passivated with a combination of PEG and PEG-biotin (coverslips) or PEG only (slides) following a previously published protocol for SiMPull[31]. Reaction chambers (~20 µl) were created using double-sided tape and epoxy. Protein was immobilized on the surface with 0.2 mg ml^−1 NeutrAvidin in buffer C (20 mM HEPES pH 7.5, 150 mM KCl, 10% glycerol, 0.05% Tween-20, 1 mM DTT). Excess NeutrAvidin was washed away and incubated with either biotin-conjugated mouse monoclonal anti-Strep-Tag II antibody (LSBio, Cat. No. LS-C203632-100) or biotin-conjugated rabbit polyclonal anti-GFP antibody (Rockland, Cat. No. 600-406-215) diluted in buffer C + BSA (0.1 mg ml^−1; Molecular Biology Grade Bovine Serum Albumin). Activator WD40 and activated APC/C (typically 50 µl containing about 65 ng APC/C, of which only a small fraction is immobilized on the glass) were immobilized using anti-Strep-Tag II, while APC/C alone was immobilized with anti-GFP. SMOR results were similar when performed in the buffer (wash buffer B) used in polarization anisotropy.
(§3) To capture dynamic protein–protein interactions, dye-labeled substrate diluted in buffer C + BSA was added to the chamber containing immobilized proteins. Interactions were imaged by TIRF microscopy as described below. For optimal signal-to-noise ratio, peptide concentration was no greater than 1 nM. Protein substrates included Hsl1 aa 667–872 and a C-terminal HaloTag followed by a TAP tag, and were produced by translation in rabbit reticulocyte lysates using TnT Quick Coupled Transcription/Translation System (Promega) (see Supplementary Table 5 for plasmids). Protein was purified with magnetic IgG beads and labeled on the bead with JF549 or JF646 dye so that unbound dye could be washed away. Purified dye-labeled protein was then cleaved from the beads using TEV protease. Before adding substrate to the reaction chamber, oxygen scavenging reagents were added (10 nM protocatechuate-3,4-dioxygenase, 2.5 mM protocatechuic acid, and 1 mM Trolox)[41]. A detailed description of the SMOR analysis pipeline is found in Supplementary Note 1.
Microscopy was performed with a Nikon Eclipse TE2000-E with Perfect Focus with a 100 × 1.49na oil, Apo TIRF DIC N2, 0.13-0.2, WD0.12 objective. Movies were recorded using the Andor iXon DU-897E-CSO. For visualizing GFP-tagged protein, a 491 nm laser was used with an ET525/50 (Chroma) filter for emission. […]

APC/C^Cdh1 = molecular target: T2, APC/C^Cdh1 (Saccharomyces cerevisiae, UniProt P53068+P53197); type: binding; details: for mean dwell time: representative of two independent experiments, ± SE, ligand ≤1 nM, buffer C + BSA
T2 construct: APC/C was purified from yeast cells; made in house; host or cells: APC/C from S. cerevisiae W303 strain NHY13 (Cdc16-TAP, Apc1-GFP, cdh1 deleted); Cdh1 from Sf9 (baculovirus)
T2 sequence (P53068 whole entry, looked up): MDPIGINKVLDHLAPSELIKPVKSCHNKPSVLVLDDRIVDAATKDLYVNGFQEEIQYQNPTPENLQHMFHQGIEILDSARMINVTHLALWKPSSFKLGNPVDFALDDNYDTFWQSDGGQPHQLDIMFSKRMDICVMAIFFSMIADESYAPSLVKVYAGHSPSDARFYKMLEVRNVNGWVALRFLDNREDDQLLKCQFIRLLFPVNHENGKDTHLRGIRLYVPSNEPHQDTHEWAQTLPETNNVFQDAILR
T2 sequence (P53197 whole entry, looked up): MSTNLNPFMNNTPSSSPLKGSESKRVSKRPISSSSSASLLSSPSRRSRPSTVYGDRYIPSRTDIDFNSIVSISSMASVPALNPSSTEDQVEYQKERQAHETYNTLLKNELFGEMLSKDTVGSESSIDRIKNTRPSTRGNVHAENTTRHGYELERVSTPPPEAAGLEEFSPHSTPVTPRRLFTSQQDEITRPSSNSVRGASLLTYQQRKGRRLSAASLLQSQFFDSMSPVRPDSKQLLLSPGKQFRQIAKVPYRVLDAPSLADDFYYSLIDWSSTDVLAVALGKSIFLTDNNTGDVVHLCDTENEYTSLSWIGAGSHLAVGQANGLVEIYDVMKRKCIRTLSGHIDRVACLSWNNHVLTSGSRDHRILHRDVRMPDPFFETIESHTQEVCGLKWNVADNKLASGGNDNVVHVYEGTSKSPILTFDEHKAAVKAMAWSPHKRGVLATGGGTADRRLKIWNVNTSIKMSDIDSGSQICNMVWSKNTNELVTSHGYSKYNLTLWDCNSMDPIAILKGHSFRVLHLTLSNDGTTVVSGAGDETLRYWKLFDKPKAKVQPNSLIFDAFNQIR
Description: as §1, §2, §3
Microscopy was performed with a Nikon Eclipse TE2000-E with Perfect Focus with a 100 × 1.49na oil, Apo TIRF DIC N2, 0.13-0.2, WD0.12 objective. Movies were recorded using the Andor iXon DU-897E-CSO. For visualizing GFP-tagged protein, a 491 nm laser was used with an ET525/50 (Chroma) filter for emission. For visualizing JF549-labeled substrate, a 561 nm laser was used with an ET595/50 (Chroma) filter for emission. For visualizing all Cy5-labeled peptides and JF646-labeled substrates, a 640 nm laser was used with an ET685/70 filter (Chroma) for emission. Initially, for each substrate tested, we acquired movies at multiple intervals to deduce the optimal interval to decrease bleaching. µManager version 2.0 was used to control the microscope and record time-lapse movies.

[1] = Supplementary Table 1, replicate 1 (movie listed first)
[2] = Supplementary Table 1, replicate 2 (movie listed second)

B1: Hsl1^Halo KEN & D: Hsl1 fragment (amino acids 667–872) with C-terminal HaloTag, JF549-labeled (protein)
chain: QNSASKRSLYSLQSISKRSLNLNDLLVFDDPLPSKKPASENVNKSEPHSLESDSDFEILCDQILFGNALDRILEEEEDNEKERDTQRQRQNDTKSSADTFTISGVSTNKENEGPEYPTKIEKNQFNMSYKPSENMSGLSSFPIFEKENTLSSSYLEEQKPKRAALSDITNSFNKMNKQEGMRIEKKIQREQLQKKNDRPSPLKPIQ
modifications: JF549 or JF646 dye covalently bound to the HaloTag; left off: HaloTag, C-terminal, kept | TAP, C-terminal, cleaved
notes: Hsl1 fragment (amino acids 667–872) with C-terminal HaloTag, JF549-labeled
APC/C^Cdc20
  fold lower affinity/dwell time with APC/C^Cdc20 than with APC/C^Cdh1 (preference for APC/C^Cdh1): 600 fold
  mean dwell time: 0.518 ± 0.03 s and 0.518 s
APC/C^Cdc20; [1]
  Dwell Time: 0.518 ± 0.032 s
APC/C^Cdc20; [2]
  Dwell Time: 0.396 ± 0.027 s
APC/C^Cdc20; listed as Hsl1 fragment
  mean dwell time: 0.518 ± 0.03 s
APC/C^Cdh1
  Dwell Time: 300 s
  fold increase in affinity/dwell time, APC/C^Cdh1 vs Cdh1 alone: 6 fold
  mean dwell time: 321 ± 14 s and 321 s
APC/C^Cdh1; [1]
  Dwell Time: 321.161 ± 14.186 s
APC/C^Cdh1; [2]
  Dwell Time: 268.262 ± 10.979 s
APC/C^Cdh1; listed as Hsl1
  mean dwell time: over 300 s
APC/C^Cdh1; listed as Hsl1 fragment
  mean dwell time: 321 ± 14 s
